Literature values, collected in publication PMC5487894.
Like-named read-outs stand apart in the source and are kept apart here. One block for each substance: values may come before it.

Legend:
Rab5 (Homo sapiens) = Rab5 (Homo sapiens) (UniProt P20339)
[1] = target: CDC12 20-40 (Schizosaccharomyces pombe) (UniProt Q10059)
Rac (Homo sapiens) [2] = target: Rac (Homo sapiens) (UniProt P63000)
Rac (Homo sapiens) [3] = target: Rac (Homo sapiens) (UniProt P63000); remark: listed apart in the source

Chain of UniProt P20339 (P20339 whole entry): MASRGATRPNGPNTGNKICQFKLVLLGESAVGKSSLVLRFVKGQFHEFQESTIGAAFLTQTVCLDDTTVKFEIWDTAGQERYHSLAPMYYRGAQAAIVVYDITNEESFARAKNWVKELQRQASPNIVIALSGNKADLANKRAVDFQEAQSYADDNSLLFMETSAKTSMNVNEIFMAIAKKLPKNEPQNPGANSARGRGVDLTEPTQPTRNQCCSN
Chain of UniProt Q10059 (Q10059 20-40): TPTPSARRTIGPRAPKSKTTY

Kd (Rab5 (Homo sapiens)): 900 nM
Substance: APPL1 BAR-PH (from UniProt Q9UKG1)

Kd [1]: 2 nM
Substance: CDC15 F-BAR (from UniProt Q09822)

Kd (Rac (Homo sapiens) [2]): 20000 nM
Kd (Rac (Homo sapiens) [3]): 3000 nM
Substance: IRSp53 RCB domain (from UniProt Q9UQB8)
